The results in this text go back to patent publication US20030125257A1, “Assay for identifying beta secretase inhibitors” (priority 2001, published 2003).

The target in this test is T1, purified BACE (Homo sapiens, UniProt P56817).
T1 construct: Pooled fractions containing full-length BACE were passed over a 5 ml HiTrap Q column; 6xHis (C); made in house; host or cells: Sf9 insect cells (recombinant baculovirus, pFASTBAC1)
In words: Competitive radioligand binding assay (RLBA). As to conditions: binding to purified BACE as in example 6, FIG. 4. As for the experimental part: 96 well microplates (Optiplate Packard) are coated with purified BACE protein using a concentration of 1 μg/ml in 30 mM sodium citrate buffer adjusted to pH 5.5. The coating is achieved by incubation of 100 μl/well for 1-3 days at 4° C. The plate is then washed with 2×300 μl/well of 10 mM citrate pH 4.1. To each well 100 μl binding buffer (30 mM citrate, 100 mM NaCl, 0.1% BSA, pH 4.1) is dispensed. The test compound (peptide H-4848 in FIGS. 4A and B) is added in 5 μl from a DMSO stock solution or appropriate dilutions. To this the tracer (tritiated Compound A) is added in 10 μl/well from a 10 μCi/ml stock solution in binding buffer. After incubation for 1.5-2 hours in a humid chamber at ambient temperature the plate is washed with 2×300 μl/well water and flipped on a dry towel. Following the addition of 50 μl/well MicroScint20 (Packard) the plate is sealed and vibrated for 5 seconds. The bound radioactivity is counted on a Topcount (Packard). Total binding is typically between 2000 and 10000 cpm/well depending mainly on the purity and concentration of the BACE protein. Non-specific binding as assessed by competition with >1 μM peptide H-4848 (Bachem #H-4848) is typically between 30 and 300 cpm/well. The IC-50 values are calculated by Microsoft Excel FIT.

Square brackets hold non-standard residues; d marks the D form. Ends that are not written are not given here. Sta = CC(C)C[C@H](N)[C@@H](O)CC(=O)O

T1 sequence (P56817 46-501): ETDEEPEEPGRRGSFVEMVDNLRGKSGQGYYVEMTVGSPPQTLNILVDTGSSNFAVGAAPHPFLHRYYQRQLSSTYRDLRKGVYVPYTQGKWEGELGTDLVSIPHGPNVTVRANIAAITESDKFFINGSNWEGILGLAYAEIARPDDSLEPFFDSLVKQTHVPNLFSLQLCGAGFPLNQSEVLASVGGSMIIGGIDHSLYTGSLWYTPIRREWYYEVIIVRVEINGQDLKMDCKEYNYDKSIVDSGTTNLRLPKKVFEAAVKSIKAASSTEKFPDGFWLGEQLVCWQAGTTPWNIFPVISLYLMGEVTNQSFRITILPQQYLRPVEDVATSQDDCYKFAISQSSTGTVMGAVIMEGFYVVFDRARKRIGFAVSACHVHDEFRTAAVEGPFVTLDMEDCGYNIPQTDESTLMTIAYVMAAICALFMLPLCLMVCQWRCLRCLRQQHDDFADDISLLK

Turning to “tritiated compound A: Compound A with iodine exchanged for 3H by reduction on palladium; tracer of the binding assay (EVN[Sta]VAE[Tyr(3H2)]-NH2)”, the “equilibrium binding isotherm (Scatchart analysis)” value is listed as “single binding site isotherm”.
